Assay results: the DeepSol protein solubility set

Assay: soluble on expression in E. coli; label from the status in PepcDB or PDB records

| Sequence | soluble on expression in E. coli |
| --- | --- |
| MGSDKIHHHHHHMSIAPFLEAAGWAEATATPLAGDASSRRYTRLSRGAETAVLMQAPVATKADHASFDAFRKIGAHLRGQNLSAPKEYAADPTNGLILMEDLGDQTLARLLKDDAQTAQIAYNATANLLPHLKVHAPPHLAAPDARAMAQMVALTFDQLPDSAILRDTLLEALAEALTTHAPGAPTLSLRDVHAENLLWLPDRDGPARVGLLDFQDALLLPEGYDLASLLDDPRREVPEVWRADLIAAHSAPTRIAVLSLQRNLRILGIFRRLSTTLGKPAYGAFLPRTRTLIARAASDLPPMLAPVTELLDRTAHWTAP | not soluble |
| MMAKDFYSAIEDRRSIYAISKEQVVSDEKIQEVIYHAVKHTPSAFNSQSARVVVLLGEQHDKLWDITKETLRKIVPENNFAPTEEKMNAFKSGYGTVLYFEDSEVVESLQANFALYKDNFPTWSQQSSGMLQFAIWTALEIEGFGATLQHYNPLIDEEVRKEWDVPANWKLIAQMPFGKPVVQAGEKEFQPLENRVKIYK | not soluble |
| MIDLSTEFAGLRLKNPIVAASSGLTRNLKTIKDLEAAGVAAIVLKSLFEEQIEAEMSQMMSPMDYPEAADYINAYVQSNEISKHLDFLREVKREVAIPVIASINCFRSDSWVDFAKQFEEAGADALEINVMRLNTDLFFDANKAEQMYVDIISSLIKAIRIPVVVKLSKSFANIPSLVDKLRAAGAKGVVLFNRSYQPDIDIDKVQMVAGDVFTSAGEISDTIRH | not soluble |
| MSLKIERLNIIVTCPGRNFVTVKIVTDEGVHGLGDATLNGRELAVRAYLEDHVFPCLIGRDPRDIEDIWQYLYRGAYWRRGPVTMTAIAAIDMALWDIKSKLAGMPVYQLLGGKSREGLMVYGHANGRDHDEAIDAAHRHIAAGYRAIRVQSGVPGLAKVYGVGKTAGAYEPAEKGLPPEEPWDTALYLRHTPELFRKVRDALGDAPHLLHDAHHRLTPIEAARLGRDLEPYRLFWLEDATPAENQDAFRLIRSHTTTTLAVGEVFNSIWDCKDLIRDQLIDYIRATIVHAGGITHVRRIADYAAMYQVRTGFHGATDLSPVCMAAAVNFGLWAPNFGIQELMPHTALTDEVFPHNYRFDDGYLVMDDVPGLGVDIDETLAANYPYERAYLPVARLRDGSMWNWEGHHHHHH | not soluble |
| MSLREIVLINITGVDRPGLTAAITGVLAQGGVNILDIGQAVIHDTLSFGILVEIPDTVQGSSVLKDILFTAYKLDQQVRFTAVSEEGYQHWVEGQGKARHIVTLLTRKVTAEQLQCVSAITAKYGLNIDQIDRLSGRMPLDTPADKGKGCIEFTVRGEPADPKAMQAEFLAVAQELNVDIAFQQDSLFRRNRRLAVFDMDSTLIEAEVIDELAKAAGVGEQVAEITERAMRGELDFSESFKERLALLKGLDVGVLDEIGASLRLTEGAETLFSELKRLGYKTAILSGGFTYFAKQLQAKLGIDYVYANELEVVDGKVTGVAVEPIVNAQRKADLLRELAHKEGLSLEQTIAVGDGANDLPMLAIAGLGVAFRAKPLVKQSAKQAISTLGLDGVLYLLGEGHHHHHH | soluble |
| MGSDKIHHHHHHMNKAERQNLIITAIQQNKKMTALELAKYCNVSKRTILRDIDDLENQGVKIYAHYGKNGGYQIQQAQSKIALNLSETQLSALFLVLNESQSYSTLPYKSEINAIIKQCLSLPQTRLRKLLKRMDFYIKFDDTQHMTLPMLFSDILIYCTERNVMLVDHRVDDNIKAENVIFIGLLCKHGHWHAVIYDIAQDKTAELEIENIIDISYSFGKTIQTRDISIDNYHQFLNPIDS | not soluble |
| MILTEVSQPTEGIKLATTNVQAFFKIDSLGNGTLYITDSAVIWISSAAGTKGFSVAYPAIVLHAISTDVSVFPSEHIFVMVDQRKSVRRRRRAPVLRTIQEDDEQRGLELAAAELEDEESDDDEEEPALEIRFVPDDKDSLSQIYHQIAVGQEENPEEDDPMYDDEEEEMEEEMGDDGQGQSGQWFTADNIDHMQMSEEGLANMQRIFGRGDQHQHHHNEDESME | not soluble |
| MSLSAHPVPHAPAAPVCLAPRPAVPPTAVTVPPGAWDCHAHVLGPADLYPMQAERSYTPPDSSAAQYAALLDTLGLRRGVLVQPSVYGTDNRLLAQAVARPEWRGIAVLDPAADTRQVAALHAAGVRGFRLNLLFPGGPGLDALERSAALVAPFGWHAQLLVDVRILPGIEHRLARLPVPVVFDHLGHFPYELGTDWPGFHALLRRVAAGRTYVKLSGSYRLSARASHIADVAPIAQALVREAPQRLVWGSDWPHVGRFQDMPATHALLDALALWCPDPAARRAILVDTPTQLYSEGHHHHHH | not soluble |
| KQKRARLIYNPTSGQEIMKKNVAEVLDILESFGYETSAFQTTPRADSAKNEAARASQAGFDLVIAAGGDGTINEVVSGIAPLKRRPKVAIIPTGTTNDFARALKIPRGNPVEATKLIGKNQTIHMDIGRAYND | not soluble |
| EPIVTVYVAYGGLDLIAEEFEKDTGIKMEYVSLSSGEALSRLKAEQSNPSADVWLGGGIDAFISAQNDGLLEAYKSPNAEEIDPLFVEENGYWIGVSLVTIGILENTDLMTEKGLPEPETWDDLITEDYSGELIASNPTVSGTAYFTICGILQMNGEEEGWNYLDKFYQNTPFLTKRGSGPGNLVTAGEYAYGVAPDPHTTLIANSELPVKSVFLDNVIWWPSPVSIVNGAKHPENAKIFVDWCLSKEGQEVLMQASPRVPVRGDI | not soluble |
| MKKLAIAGALLLLAGCAEVENYNNVVKTPAPDWLAGYWQTKGPQRALVSPEAIGSLIVTKEGDTLDCRQWQRVIAVPGKLTLMSDDLTNVTVKRELYEVERDGNTIEYDGMTMERVDRPTAECAAALDKAPLPTPLPLEHHHHHH | soluble |
| MSLNISFIASNTLHELAAFLEKLNNIREHHVGFCGEKGSEIKATLERDFSDIGVSKSFIVGYDGMEIKGAVGLDVDTKEESAEVWGPFVDEDDPEMWLDTATILWQQLIDSLTVPVSTFQFFINQHNVNAKKFILKLNGMEKGDHDILTCDRTQFYPPLNHDVRLFTNNHTQSFKKLHDSLFPQTYYDAEEILKKINEPTNKLLIIEKEQIVIGYAYVEVEPEHGEGQIEYIGIAPDYRRQGLATQLLTNALHVLFSYPTVEDITLCVSKQNTKAIRLYQAAGFKKERQLTYFELNVDGLDNRRGRGEGHHHHHH | soluble |
| MKEYLTNERIRAKQVRVVGPDGKQLGIMDTREALRLAQEMDLDLVLVGPNADPPVARIMDYSKWRYEQQMAEKEARKKAKRTEVKSIKFRVKIDEHDYQTKLGHIKRFLQEGHKVKVTIMFRGREVAHPELGERILNRVTEDLKDLAVVEMKPEMLGRDMNMLLAPVKVSA | soluble |
| GMLESTKQFLKKYNINDRVLKLYETAMNDIQNQFKILDDIREFNQLKVLNAFQEERISEAHFTNSSGYGYGDIGRDSLDAVYARVFNTESALVRPHFVNGTHALGAALFGNLRPGNTMLSVCGEPYDTLHDVIGITENSNMGSLKEFGINYKQVDLKEDGKPNLEEIEKVLKEDESITLVHIQRSTGYGWRRALLIEDIKSIVDCVKNIRKDIICFVDNCYGEFMDTKEPTDVGADLIAGSLIKNIGGGIAPTGGYLAGTKDCIEKTSYRLTVPGIGGECGSTFGVVRSMYQGLFLAPHISMEALKGAILCSRIMELAGFEVMPKYDEKRSDIIQSIKFNDKDKLIEFCKGIQTGSPIDSFVSCEPWDMPGYTDQVIMAAGAFIQGSSIELSADAPIREPYIAYLQGGLTFDHAKIGILIALSRIVK | soluble |
| VTSGTALPSADDLLVLLAVGRTGRFNTAADDLGVNHTTISRRIASLEKSLGGRVLVKAAGGWELTDLGRQALTAAERVEAAVHGLVAEPGRADHLKGVVRVSATDGFSAYIAAPAGALIRSRHPEVSVEIVAITRRASQHRSGLDIEIVVGKPQVHRAEALWLADYTLGLYGAKSYLSAHGTPRQVGDLADHSLVYFIDSMLQVDELDLARRLTVSMRESVTSTNVFVHVEATRASAGIGLLPCFMADRHDDLVRVLPGQVEATLAYWLVARPESLRRPEVAAVVGAIRETVESQRDALAGQ | not soluble |
| MDRVESLANQIFEDYKDYGVDRKEIVEKLRKLLIEFRVPENEAVRTIRNYIIREYGAPATVRRERITKIEEIKEPNKWVTVKAKVIQLWESSSPSIAQVGLIGDETGYIRFLVWTKAKKQPVDEGKSYIFRNVVVDDYGGVLRLNVTKISEIEEIEEDVKVKPPEELSEDVEVVGALVAIQQNSGLIQRCSVEGCNRVIKMGKCPEHGKTKAKDDLRIKGVLDDGYRTYEVIINEEGVESLTGINLEKAKKIAEETLDRGAVLTELKKMLLGKYLRVVGTATPRYLIAKHVEFFRPDIRKEIEKVKALLEEV | not soluble |
| MLIKLGTELTKEEYVTRYMRNFQKLLLLGDRPKVLTNREEQLLQYEKELCVLFYEQFIKKHHRAPDEATLDDQVKANFIERSKIFARSPLVMDEGNFTQAHIGQLKRLRELRMEDYLPDNYTHILQREEELARNYFRKHDDYPFGYECLCISRSREVVNQGLEKLLEGFYDSYQVYYRRYRKNG | not soluble |
| MAHHHHHHMNVINRMLSRGHVAASASLPIKERPFPVNYGLSTFKWHLDSRKPSKAILLHDLFGSSAYWQMLLHESLGRLPCSGLTPLVPLELFAVDFRGHNHSKSLPCPEEGRAFTMACAADIMLLQQQVLRADAKLVGIGFGALVACQAALHSPESGIDSLVLIVNGPSDLLACEPARYSLPSFISDIPKEISSVADLEHHLHKRVPNEAERALILSTVEQREGTVGFKFNETLFQFRGPLCGFSDVGPENIFTKPVTVIQCGSEEFSGEAKSDFMKHFPKAKFVLFEGDRSGGISGLSAQGPAVTRTLLEAMELLGETTGGEE | not soluble |
| MAKTLYEKLFDSHIVYEAEGETPILYINRHLIHEVTSPQAFDGLRVANRQVRQVNKTFGTMDHSISTQVRDVNKLEGQAKIQVLELDKNTKATGIKLFDITTKEQGIVHVMGPEQGLTLPGMTIVCGDSHTATHGAFGALAFGIGTSEVEHVLATQTLKQARAKSMKIEVRGKVASGITAKDIILAIIGKTTMAGGTGHVVEFCGEAIQDLSMEGRMTVCNMAIEMGAKAGLIAPDETTFAYLKDRPHAPKGKDWEDAVAYWKTLKSDDDAQFDTVVTLEAKDIAPQVTWGTNPGQVISVNETIPNPQEMADPVQRASAEKALHYIGLEAGTNLKDIKVDQVFIGSCTNSRIEDLRAAAAVMKGRKKADNVKRILVVPGSGLVKEQAEKEGLDKIFIAAGAEWRNPGCSMCLGMNDDRLGEWERCASTSNRNFEGRQGRNGRTHLVSPAMAAAAGVFGKFVDIRDVTLN | not soluble |
| MGSDKIHHHHHHMRVKHFELLTDEGKTFTHVDLYGKYTILFFFPKAGTSGCTREAVEFSRENFEKAQVVGISRDSVEALKRFKEKNDLKVTLLSDPEGILHEFFNVLENGKTVRSTFLIDRWGFVRKEWRRVKVEGHVQEVKEALDRLIEEDLSLNKHIEWRRARRALKKDRVPREELELLIKAAHLAPSCMNNQPWRFVVVDEEELLKKIHEALPGGNYWMKNAPALIAVHSKKDFDCALPDNRDYFLFDTGLAVGNLLVQATQMGLVAHPVAGYDPVKVKEILKIPEDHVLITLIAVGYLGDESELSEKHRELERSERVRKELSEIVRWNL | not soluble |
| GMADAPIDIFQSILSRKSIRAFTDQPVTQETIREILKLAARAPSGTNLQPWQVIVLTGKILQKVGQELSQLVLSGIKGEREYHYYPRQWREPYLSRRRKVGLDLYKSLGIQKGDQEKMLHQKAKNFLFYGAPVGLLFTIDHDMEMGSWLDLGMFMQTIMLAARGFGLDTCAQAAFADYHKQIRSLLSVPSDRHIICGMALGYRDMNAPENNFETEREPIDNFVHFIKSYP | soluble |
| MGHHHHHHGGHMSLVRITWCPGCGNFAILKAFERASRRVIEEGFDIAVSSGIGCHGKISDYLSLPGFHVIHGRVPPFLTGLKLANPNLVVVGFSGDGDGLNEGVEHLVHAARRNTDITIILHNNGVFGLTTGQVTATSPRGRKSRSTPRGNPEYPLNPCHLMLVSGATFVARVFAGEQERLSEVFYNAMKHKGFSFVEVMQPCVSFNNFWEMRKEIYWIERSSDLLEAMKNCSDAKACGIFYAEEKETYEDAVWKSTFEGGS | soluble |
